Results published in CN115141273A.

Target: 猫杯状病毒 (Feline Calicivirus, FCV), BJH13株 (Feline calicivirus strain BJH13)
Test: cell-based or functional assay

B1: 2G3单克隆抗体 (monoclonal antibody against feline calicivirus, from hybridoma 2G3, CGMCC NO.45148) (antibody, V domains shown)
VH: QVQLQQSGPELVKPGTSVKLSCQASGYTFTNYYMWWVKQRPGQGLEWIGQINPNNDNTDFNEKFRNKATLTVDKSSSTAYMQLSRLTSEDSAVYYCTRRAYWGQGTLVTVSA
VL: GVLLTQAPLSLPVSLGDQASISCRSSQYVVYINGNSYLEWYLQKPGQSPKLLIYKVSNRFSGVPDRFSGSGSGTDFTLKISRVEAEDLGIYYCFQGSHVPYTFGGGTKLEIR
中和抗体效价 (neutralising antibody titre of the injection): 1280 titre (1:x)
中和效价 (neutralisation titre of hybridoma supernatant): 220 to 320 titre (1:x)
小鼠腹水中和效价 (neutralisation titre of ascites): 25100 titre (1:x)
